Experimental data published in the DeepSol protein solubility set.

Experiment: soluble on expression in E. coli; label from the status in PepcDB or PDB records

Sequence	soluble on expression in E. coli
MNNPAMTIKGEQAKKQLIAAALAQFGEYGMNATTREIAAQAGQNIAAITYYFGSKEDLYLACAQWIADFIGEQFRPHAEEAERLFAQPQPDRAAIRELILRACRNMIKLLTQDDTVNLSKFISREQLSPTAAYHLVHEQVISPLHSHLTRLIAAWTGCDANDTRMILHTHALIGEILAFRLGKETILLRTGWTAFDEEKTELINQTVTCHIDLILQGLSQRSL	soluble
MNNPDLPYRQALECLSQKQYNFTEVRRLLTEAFSAGHPAAAFELAKHLMDADSPYQDREQGMEMLRIAAEQGHPYARYNLAYIQELEGAPPETLIPLYRPLAEEGLPEAQVRLMYLLYASRHFEEALEWAKTSAKNNNPHGQYLLAQYCRYGTPPDFETAHLLYRKSAAQGLPEAHWQLGLQYRFGQGTKVDTAQAVNHLRAAAQQGYIPAYTPLAELILPTAPDEAVHWFQQAAQENDPDAHAALADIYLQGKHLERNHKLALHHAEAAAAERHPEGLRILGDICRYGLGIAPDTEKARHYYRQAAEAGSLSAYQKLISDSALNHPDQYGGIKDSAIRRQRAERLYQKAQALHYGLQCAPEYAAALKLYTEAAELGHSKAQTNLGSMYYFGQGMTADYNEARKWFEKAAAKKDSMAFYNLACIHYSGHGVEPDKEKACRYLQEAINNGYGQKSVLQELLQQWQNAV	not soluble
MNNQQAAIASARSRMAAGGQPQGATPGQPDQNFDYMFKLLIIGNSSVGKTSFLFRYCDDSFTSAFVSTVGIDFKVKTVFRGDKRVKLQIWDTAGQERYRTITTAYYRGAMGFILMYDITNEESFNSVQDWCTQIKTYSWENAQVVLVGNKCDMDSERVVSMDRGRQLADQLGLEFFETSAKENINVKAVFEKLVEIICDKMAESLDKDPQQQPKGQKLEANPTQKPAQQQCNC	not soluble
MNNQTILIIGAAGNNGMATIESLVSKQPKDTIVAAVRSTDKATLLKKKFPSIKTVIIDLDKPETLTAAYEGVTKVFMIPGNVEEREQHAKNAIDAAVQAGTVKQFLFYSVVGAEYEAILFAQQFRAGEKYLEQSGLNWTHLRTIFFQDNFFGWADGVKQGGLYFGIREGSFAPLNVADIGEMAANILTTSGHEHKAYNITGSELLSGEEMAKVFTDVTGKTVAYISPTKQQTLDSLLSTGWPQWQAEGMLELFEVFATNQAAVVSPDGEQLLGRPLTTLKDFIASNKAAFV	not soluble
MNPKSSLADGAHIGNYQIVKTLGEGSFGKVKLAYHTTTGQKVALKIINKKVLAKSDMQGRIEREISYLRLLRHPHIIKLYDVIKSKDEIIMVIEYAGNELFDYIVQRDKMSEQEARRFFQQIISAVEYCHRHKIVHRDLKPENLLLDEHLNVKIADFGLSNIMTDGNFLKTSCGSPNYAAPEVISGKLYAGPEVDVWSCGVILYVMLCRRLPFDDESIPVLFKNISNGVYTLPKFLSPGAAGLIKRMLIVNPLNRISIHEIMQDDWFKVDLPEYLLEHHHHHH	soluble
MNPLAQKLNDEIKQSSPEVLDMMSQLGKDMFYPKGILSQSAEAKRTTYNATIGMATKKEGKMYANSLNQMFNDLTPDEIFPYAPPQGVEELRDLWQKKMLKENPDLKSKSISRPIVTNALTHGLSLVADLFVDTDDTVLLPTHNWGNYKLVFSTRHGAHIDTYSIFDNSGHFTTSELVKTLKEYKKDKVIIILNYPNNPTGYTPNKEEVNTIVNAIEELANKGTKVVTVVDDAYYGLFYEEVYQQSIFTALTQVKSSNLLPVRLDGATKEFFSWGFRVGFMTFGIDHETLKNALEAKVKGLIRSNISSSPLPSQSAIKHVLKHHEQFDKEIDQNINILKERYEVTKQVVYDNKYAKYWQAYDFNSGYFMSLKLNQVDPEELREHLINNYSIGIIALNSTDIRIAFSCVEKEDIPYVFESIANAIDDIK	not soluble
MNPQTDNVFYATNAFTGEALPLAFPVHTEVEVNQAATAAAKVARDFRRLNNSKRASLLRTIASELEARSDDIIARAHLETALPEVRLTGEIARTANQLRLFADVVNSGSYHQAILDTPNPTRAPLPKPDIRRQQIALGPVAVFGASNFPLAFSAAGGDTASALAAGCPVIVKGHTAHPGTSQIVAECIEQALKQEQLPQAIFTLLQGNQRALGQALVSHPEIKAVGFTGSVGGGRALFNLAHERPEPIPFYGELGAINPTFIFPSAMRAKADLADQFVASMTMGCGQFCTKPGVVFALNTPETQAFIETAQSLIRQQSPSTLLTPGIRDSYQSQVVSRGSDDGIDVTFSQAESPCVASALFVTSSENWRKHPAWEEEIFGPQSLIVVCENVADMLSLSEMLAGSLTATIHATEEDYPQVSQLIPRLEEIAGRLVFNGWPTGVEVGYAMVHGGPYPASTHSASTSVGAEAIHRWLRPVAYQALPESLLPDSLKAENPLEIARAVDGKAAHS	soluble
MNPTVLVAEDDPVQRLLLRRALEPLGVEVRLARHGREALDLALEAPPHLVLTDLHMPHMDGLELTRRLKALDPLLPVLLFTADRDHETRLRGLEAGADDFLNRPFDLTELRLRVKGHLERRRLQEKLEDLERALLALVRAVEAKDPYTAGHAERVARYALLGARELGAGEEELRDLHMGALLHDVGKIGLPDRILRGEAPLSAADWRLIQAHPVKGDEILTPLKAHPRLRPYVRWHHEKLDGSGYPDGLTEIPLLVQVLSAADMYDALTSRRTYREAVKPEEALEALEREAREGRLALEAVRALRSGLRRGASEAKGHVLHL	soluble
MNPVEPADLVDIREQLHSGCHIVQAKGFSFLANRIINKELDAKDEKKYRKLLFDCFVVEEDILFRFLIDTLPILLIRGSNSPETLWEEFTLRAPRIRRIQRAFGMMISHCKPSFSKFLDVAARIDSEILTKICISSEFGYNFYQYIAVLSFTGLLSDSQKRLVGNCGLAQNVFLKHQPDLYPTGHESEHDPESFLRECSAEDLLSHPLHNIDPFQRHKLMRDRPAVLESKNLPNHILYLPYAVMLSQYKQVIVKLVEQSKMADHKLASENRVSGCRDTYSFAAPDFSDQDLTFETFMYHTIATGKVTSFIKYVENYHESLGILQKAHLLPALTVFLTHSSTNPSLQERICKLIALFVKKAPENADQFVLYFITLYQKPFFPIHRHLLLETIKDLFVNRFVISSAFGFLKITACLEGDRVRSLECLAEIIPKFTQLFEPMTSLCALKRDDGSDESFYAELHLLKECCKVTEDNEKALSKISNSLKECTGPRLAAIVDAVTDLIKCGVLDTIGARSMLTKRARQRGCEQSLGTYCRLLSTSTIPEENEEQARILRMSCIEELANLKQNDNHTVASEAWRSLGAFELDELEKGLKINPAQFATLFVKLRKEVQNGFIDFLSLCLHKEVESYQRPLYNTSAQDVNVSPLLTKVDTFKDKLIIENKNEPWFWSASLSLSASILQLTGPTNRAQASVRLLQSCLENVVPASSHDEMIRLMAGWRICIREVLHVLTESKSNDILWARDQIINTGRTSLTNKAESVDNIMMMLTALADAIDQQLRNIENDEQVEEVSKAQNPWLLSVYEFVATRLPKNLKEKRVAKNEPIYQLITHSNKSSLLTAIFCLRLLYLNPSVAAFYNDEDVGLTDDRMLVSLLQDSTKELKKEEIPDRKMMWVTAEAYGASQMSAKAFEVAYNIVIDEKTEKYEETELVDDESIEKFFNGLISSPKKDLKEIEQNNKKVLEKLWNNGNNEVRRKIYEGLAELALISGTGRSKMVIPAGKLPEGILKGILQLFDKKINVKPETLRNIIRCLVNHRRNDGRFLPPIDWMKFLERSEWTKADTDARLAMITLACEQNISEVIFHFSSSLTVKELLVLSENLRSVSKLFPRKEFTMILVQMAVQARKEDVETSKKLSMALSDLQKDSTVHNFLMKCLPKLFDISGITDPILNSIKDPDAFGGQISNCFDVWLEARRGEKMNIRRICDIFGKEESNSKKNAICALISHESRTLSRKMRFEKLLDVITASRIARTFGGSMQSFFSIFLSIIVSNNDTVEIPLCWFENQEHVPAMMIAAKQPFYKWIVEAPEMKSNAHHFGSFLSYYVDGPEKQYYEYWHTEGATDLLAMIVSAYPNETFPNLLTQTDEFWKSLLGIADVGK	not soluble
MNQEDNTGGGGIFGLFKWTKDALFGTDISPSMKYKDQEERRDRSRYAQDDTNFSMKFGNDSNRRSTNLSRSNSWSGLDSTLHRKYELLPEYNENGFNSIVNGDHHSKERIRSLRSPAPIVPREPLRNEPTDTFGHRLHTKRRTINELSNSQIPFIPPQEDDPLLSKLFNKDGVNEVRRSPYKLSVKDIPGKFPSPLTKRDEIDNYYVRDEDACHKNREYKKAYFDLFAQMDLNSRDLEDLCEDVREQREQFHRNEQTYKQAYEEMRAELVNELKKSKTLFENYYSLGQKYKSLKKVLDQTISHEAELATSRERLYQEEDLKNFEIQTLKQRLSDLELKYTNLQIEKDMQRDNYESEIHDLLLQLSLRNNERKDTSAGSNIFSTGQ	soluble
MNQEYLDFELPIAELEAKIEALRAASDDKVDLTDEIKRLQKKSNELTKKTFANLDAWQVSRMARHPNRPYTLDYIEHIFTEFEELAGDRAFADDKAIVGGLARLDGRPVMVIGHQKGRSVKEKVQRNFGMPAPEGYRKALRLMEMAERFKLPIITFIDTPGAYPGIGAEERGQAEAIARNLREMAQLTVPVICTVIGEGGSGGALAIGVGDKVNMLQYSTYSVISPEGCASILWKSAEKASTAAEVMGLTASRLKELNLIDSIVQEPLGGAHRSYLEIAENLKLRLKEDLAELDELSKEELLNRRYERLMSYGYC	not soluble
MNQLINITLNENQEPVVSGRDLHNVLNIKTQYTKWLERMSEYGFEENVDYIAISQKRLTAQGNRTEYIDHVLKLDMAKEIAMLQRNEKSKQVRKYFIQVEKDFNSPEKIMARALLMADKKITNLTMENNQLQLDLKEAQKQARYLDLIIESKGALRVTQIAADYGMSVNKFNKTLLEFGVQHKVNGQWILYKRHMGKGYTDSHTFDYQDKNGHTRANVTTTWTQKGRLFLYELLKDNNILPLIEQEDIV	not soluble
MNQNLLVTKRDGSTERINLDKIHRVLDWAAEGLHNVSISQVELRSHIQFYDGIKTSDIHETIIKAAADLISRDAPDYQYLAARLAIFHLRKKAYGQFEPPALYDHVVKMVEMGKYDNHLLEDYTEEEFKQMDTFIDHDRDMTFSYAAVKQLEGKYLVQNRVTGEIYESAQFLYILVAACLFSNYPRETRLQYVKRFYDAVSTFKISLPTPIMSGVRTPTRQFSSCVLIECGDSLDSINATSSAIVKYVSQRAGIGINAGRIRALGSPIRGGEAFHTGCIPFYKHFQTAVKSCSQGGVRGGAATLFYPMWHLEVESLLVLKNNRGVEGNRVRHMDYGVQINKLMYTRLLKGEDITLFSPSDVPGLYDAFFADQEEFERLYTKYEKDDSIRKQRVKAVELFSLMMQERASTGRIYIQNVDHCNTHSPFDPAIAPVRQSNLCLEIALPTKPLNDVNDENGEIALCTLSAFNLGAINNLDELEELAILAVRALDALLDYQDYPIPAAKRGAMGRRTLGIGVINFAYYLAKHGKRYSDGSANNLTHKTFEAIQYYLLKASNELAKEQGACPWFNETTYAKGILPIDTYKKDLDTIANEPLHYDWEALRESIKTHGLRNSTLSALMPSETSSQISNATNGIEPPRGYVSIKASKDGILRQVVPDYEHLHDAYELLWEMPGNDGYLQLVGIMQKFIDQSISANTNYDPSRFPSGKVPMQQLLKDLLTAYKFGVKTLYFQNTRDGAEDAQDDLVPSIQDDGCESGACKI	soluble
MNQTLLSDFGTPVERVERAIDALRNGRGVMVLDDESRENEGDMVFAAEAMTLEQMALTIRHGSGIVCLCITDERRQQLDLPMMVTHNSSQFQTAFTVTIEAAEGVTTGVSAADRLTTIRKAIADNAKPADLNRPGHVFPLRGQPGGVLSRRGHTEASIDLATLAGYKPAGVLCELTNDDGSMAHAPEVIAFAKLHDMPVVTIDDLAAYLQSRAKKAS	not soluble
MNQVAPFYADHVGSILRTKGIKDAREKFQSGEITALELRKIENTEIKYIVEKQKEVGLKSITDGEFRRAWWHFDFLENLDGVEGYDAAGGIQFSKVQTKSHSVKITGPIDFTTHPFIEDFIFLKEAVGDNHVAKQTIPSPAMLHYRGDIEYQPYLDDAEKFANDLATAYQKAIQAFYDAGCRYLQLDDTSWSYLCSDEQREVVRQRGFDPETLQETYKNLINEAIKHKPADMVITMHICRGNFRSTWIAEGGYGPVAETLFGKLNIDGFFLEYDNERSGDFAPLKYVTRPDLKIVLGLITSKTGELEDEAAIKARIEEASEIVPLSQLRLSPQCGFASTEEGNILTEEEQWDKLRYVVRLANDIWGELEHHHHHH	soluble
